Experimental data reported in patent publication US20170008943A1 (Novo Nordisk, published 2017).
*1 amine or outer side, *2 acyl side, *3 side chain or, on linkers, in order; H or OH if unused. Side-chain parts run from the residue outwards. [ ]: non-standard residue; d: D form. The star is where a group is joined. γGlu = O=C(O)[C@H](CCC(=O)[*:2])N[*:1]; Desaminohistidyl = O=C(CCc1c[nH]cn1)*; Aib = CC(C)(N)C(=O)O

B1: N^ε24-[(4S)-4-[[(4S)-4-[[(4S)-4-[[(4S)-4-[[(4S)-4-acetamido-4-carboxybutanoyl]amino]-4-carboxybutanoyl]amino]-4-carboxybutanoyl]amino]-4-carboxybutanoyl]amino]- … (peptide)
peptide: XSHGTFTSDYSKYLESRRAQEFVKWLLST
modifications: Imp (imidazopropionyl, des-amino-histidine) at position 1; N-epsilon of Lys24 acylated with acetyl-(gamma-Glu)5 substituent as in the name; C-terminal carboxylic acid
notes: Imp written X under substitutions
B2: N^ε24-[(4S)-4-[[(4S)-4-[[(4S)-4-[[(4S)-4-acetamido-4-carboxybutanoyl]amino]-4-carboxybutanoyl]amino]-4-carboxybutanoyl]amino]-4-carboxybutanoyl]-[Imp1, His3, … (peptide)
peptide: [Desaminohistidyl]SHGTFTSDYSKYLD[Aib]RRAQDFVK([γGlu-γGlu-γGlu-γGlu-Ac])WLLST-OH
SMILES: CC(=O)N[C@@H](CCC(=O)N[C@@H](CCC(=O)N[C@@H](CCC(=O)N[C@@H](CCC(=O)NCCCC[C@H](NC(=O)[C@@H](NC(=O)[C@H](Cc1ccccc1)NC(=O)[C@H](CC(=O)O)NC(=O)[C@H](CCC(N)=O)NC(=O)[C@H](C)NC(=O)[C@H](CCCNC(=N)N)NC(=O)[C@H](CCCNC(=N)N)NC(=O)C(C)(C)NC(=O)[C@H](CC(=O)O)NC(=O)[C@H](CC(C)C)NC(=O)[C@H](Cc1ccc(O)cc1)NC(=O)[C@H](CCCCN)NC(=O)[C@H](CO)NC(=O)[C@H](Cc1ccc(O)cc1)NC(=O)[C@H](CC(=O)O)NC(=O)[C@H](CO)NC(=O)[C@@H](NC(=O)[C@H](Cc1ccccc1)NC(=O)[C@@H](NC(=O)CNC(=O)[C@H](Cc1c[nH]cn1)NC(=O)[C@H](CO)NC(=O)CCc1c[nH]cn1)[C@@H](C)O)[C@@H](C)O)C(C)C)C(=O)N[C@@H](Cc1c[nH]c2ccccc12)C(=O)N[C@@H](CC(C)C)C(=O)N[C@@H](CC(C)C)C(=O)N[C@@H](CO)C(=O)N[C@H](C(=O)O)[C@@H](C)O)C(=O)O)C(=O)O)C(=O)O)C(=O)O
notes: Imp and Aib written X under substitutions
B3: N^ε24-[(4S)-4-[[(4S)-4-[[(4S)-4-acetamido-4-carboxybutanoyl]amino]-4-carboxybutanoyl]amino]-4-carboxybutanoyl]-[Imp1, His3, Glu15, Glu21, Lys24, Leu27, … (peptide)
peptide: [Desaminohistidyl]SHGTFTSDYSKYLESRRAQEFVK([γGlu-γGlu-γGlu-Ac])WLLST-OH
SMILES: CC(=O)N[C@@H](CCC(=O)N[C@@H](CCC(=O)N[C@@H](CCC(=O)NCCCC[C@H](NC(=O)[C@@H](NC(=O)[C@H](Cc1ccccc1)NC(=O)[C@H](CCC(=O)O)NC(=O)[C@H](CCC(N)=O)NC(=O)[C@H](C)NC(=O)[C@H](CCCNC(=N)N)NC(=O)[C@H](CCCNC(=N)N)NC(=O)[C@H](CO)NC(=O)[C@H](CCC(=O)O)NC(=O)[C@H](CC(C)C)NC(=O)[C@H](Cc1ccc(O)cc1)NC(=O)[C@H](CCCCN)NC(=O)[C@H](CO)NC(=O)[C@H](Cc1ccc(O)cc1)NC(=O)[C@H](CC(=O)O)NC(=O)[C@H](CO)NC(=O)[C@@H](NC(=O)[C@H](Cc1ccccc1)NC(=O)[C@@H](NC(=O)CNC(=O)[C@H](Cc1c[nH]cn1)NC(=O)[C@H](CO)NC(=O)CCc1c[nH]cn1)[C@@H](C)O)[C@@H](C)O)C(C)C)C(=O)N[C@@H](Cc1c[nH]c2ccccc12)C(=O)N[C@@H](CC(C)C)C(=O)N[C@@H](CC(C)C)C(=O)N[C@@H](CO)C(=O)N[C@H](C(=O)O)[C@@H](C)O)C(=O)O)C(=O)O)C(=O)O
notes: as for B1

target: T1, human glucagon receptor (human, UniProt P47871 26-477); experiment: displacement of 125I-glucagon from BHK membranes with human glucagon receptor (SPA), Assay (II)(b)
T1 construct: whole, on cells; Potency assay (I)(b): whole BHK cells (clone pLJ6'-4-25) with CRE luciferase; also called hGlucagonR; hGCGR
T1 sequence (P47871 26-477): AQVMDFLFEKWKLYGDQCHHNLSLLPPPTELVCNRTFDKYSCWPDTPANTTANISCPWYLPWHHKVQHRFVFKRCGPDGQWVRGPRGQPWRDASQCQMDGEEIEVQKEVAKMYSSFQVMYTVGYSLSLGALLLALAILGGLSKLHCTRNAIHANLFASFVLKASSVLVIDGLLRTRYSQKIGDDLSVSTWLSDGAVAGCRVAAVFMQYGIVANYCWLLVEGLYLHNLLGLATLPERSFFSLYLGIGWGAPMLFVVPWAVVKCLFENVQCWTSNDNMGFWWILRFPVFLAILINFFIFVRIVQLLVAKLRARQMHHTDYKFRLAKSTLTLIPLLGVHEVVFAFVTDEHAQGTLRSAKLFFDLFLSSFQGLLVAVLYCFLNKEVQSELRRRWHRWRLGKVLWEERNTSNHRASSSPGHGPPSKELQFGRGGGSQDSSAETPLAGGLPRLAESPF

Binder	IC50
B1	2.7 nM
B2	0.3 nM
B3	1.5 nM

target: T1, human glucagon receptor; experiment: cell-based or functional assay

Binder	EC50 hGlucagonR (pM), CRE luciferase reporter in BHK cells
B1	6 pM
B2	2 pM
B3	6 pM
